The text below walks through data of patent publication US20200270351A1 (Janssen / Centocor, published 2020).

This assay addresses T1, mutant L858R/T790M EGFR on NCI-H1975 cells (human, UniProt P00533 25-1210).
T1 construct: whole, on cells; these cells carry both this EGFR and wild type c-Met; also called H1975 target cells; HER1
As to the kind of experiment: confocal imaging of AF647-labeled antibody in co-culture of M1 or M2c macrophages and H1975 target cells (data not shown). As for the experimental part: Differentiated macrophages were harvested and plated onto CellCarrier96 ultra plates at 1,00,000 cells/well (Perkin-Elmer; Cat#6055302) overnight. Assays were performed using both adhered and non-adhered target cells. For assays with adhered target cells, the H1975 NucLight Red cells were plated at 20,000/well, adhered for 4 hours, then treated with labeled Ab cocktail for 1 hour at 4° C.

B1: JNJ-61186372 (JNJ-372), IgG1 anti-EGFR/c-Met bispecific antibody (bispecific antibody)
heavy 1: not shown
light 1: not shown
heavy 2: not shown
light 2: DIQMTQSPSSVSASVGDRVTITCRASQGISNWLAWFQHKPGKAPKLLIYAASSLLSGVPSRFSGSGSGTDFTLTISSLQPEDFATYYCQQANSFPITFGQGTRLEIKRTVAAPSVFIFPPSDEQLKSGTASVVCLLNNFYPREAKVQWKVDNALQSGNSQESVTEQDSKDSTYSLSSTLTLSKADYEKHKVYACEVTHQGLSSPVTKSFNRGEC
notes: Produced in a cell line incorporating low levels (<9%) of fucose
On to B1, for which the binding result was “binds”.

B2: JNJ-372.IgG2sigma (Fc effector silent JNJ-372) (bispecific antibody, V domains shown)
VH 1: QVQLVESGGGVVQPGRSLRLSCAASGFTFSTYGMHWVRQAPGKGLEWVAVIWDDGSYKYYGDSVKGRFTISRDNSKNTLYLQMNSLRAEDTAVYYCARDGITMVRGVMKDYFDYWGQGTLVTVSS
VL 1: AIQLTQSPSSLSASVGDRVTITCRASQDISSALVWYQQKPGKAPKLLIYDASSLESGVPSRFSGSESGTDFTLTISSLQPEDFATYYCQQFNSYPLTFGGGTKVEIK
VH 2: QVQLVQSGAEVKKPGASVKVSCETSGYTFTSYGISWVRQAPGHGLEWMGWISAYNGYTNYAQKLQGRVTMTTDTSTSTAYMELRSLRSDDTAVYYCARDLRGTNYFDYWGQGTLVTVSS
VL 2: DIQMTQSPSSVSASVGDRVTITCRASQGISNWLAWFQHKPGKAPKLLIYAASSLLSGVPSRFSGSGSGTDFTLTISSLQPEDFATYYCQQANSFPITFGQGTRLEIK
notes: Used AF488- or AF647-labeled in the assays; also called IgG2σ; EGFR/cMet IgG2G Ab
Consider B2, for which the binding result is “binds”.
